Reference: patent US20260167710A1 (GlaxoSmithKline, published 2026)
Residue numbers refer to the chain shown, from its start.

How the values were obtained:
[1] = molecular target: T1, human complement component C1q (human, UniProt P02745 23-245; P02746 28-253; P02747 29-245); test: SPR (ProteOn XPR36), antibody immobilised by amine coupling, C1q as analyte, equilibrium fit, 25 C
T1 construct: also called human recombinant soluble complement C1q; Sigma #C1740-5 mg

human IL-33 [2] = molecular target: T2, human IL-33 (human, Biotinylated in Example 2; the site is not stated.); test: cell-based or functional assay
T2 chain: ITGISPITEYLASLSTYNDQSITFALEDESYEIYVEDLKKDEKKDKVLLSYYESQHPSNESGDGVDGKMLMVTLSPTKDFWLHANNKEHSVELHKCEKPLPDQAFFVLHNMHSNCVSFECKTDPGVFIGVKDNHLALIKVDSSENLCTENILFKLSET

hFcgRIIa (R131) = molecular target: T3, hFcgRIIa (R131) (human, UniProt P12318 34-217); test: SPR (ProteOn XPR36), anti-poly-histidine IgG surface, antibody as analyte, equilibrium fit, 25 C
T3 construct: extracellular domain
T3 sequence (looked up): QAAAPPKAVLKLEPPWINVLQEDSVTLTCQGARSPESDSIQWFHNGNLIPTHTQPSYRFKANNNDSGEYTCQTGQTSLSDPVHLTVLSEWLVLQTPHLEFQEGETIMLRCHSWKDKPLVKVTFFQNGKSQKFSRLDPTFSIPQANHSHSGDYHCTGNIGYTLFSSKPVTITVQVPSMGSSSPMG

hFcgRI = molecular target: T4, hFcgRI (human, UniProt P12314 16-292); test: as above
T4 construct: extracellular domain; the chip carried an anti-poly-histidine IgG; also called recombinant soluble human Fc gamma receptor I

hFcgRIIIa (V158) = molecular target: T5, hFcgRIIIa (V158) (human, UniProt P08637 17-208); test: as above
T5 construct: extracellular domain

hFcgRIIb = molecular target: T6, hFcgRIIb (human, UniProt P31994 43-217); test: as above
T6 construct: extracellular domain
T6 sequence (looked up): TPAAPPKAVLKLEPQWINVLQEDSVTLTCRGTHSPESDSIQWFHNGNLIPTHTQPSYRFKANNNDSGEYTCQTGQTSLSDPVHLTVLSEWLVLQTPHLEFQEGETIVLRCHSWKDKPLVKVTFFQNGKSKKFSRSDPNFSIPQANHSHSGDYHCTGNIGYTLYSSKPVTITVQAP

hFcgRIIa (H131) = molecular target: T7, hFcgRIIa (H131) (human, UniProt P12318 34-217); test: as above
T7 construct: extracellular domain; His at position 131 (mature numbering as commonly used)
T7 sequence (looked up): T3 sequence (looked up) with R134H

hFcgRIIIa (F158) = molecular target: T8, hFcgRIIIa (F158) (human, UniProt P08637 17-208); test: as above
T8 construct: extracellular domain

human IL-33 [3] = molecular target: T2, human IL-33; test: cell-based or functional assay
human IL-33 [4] = molecular target: T2, human IL-33; test: cell-based or functional assay
human IL-1a = molecular target: T9, human IL-1a (human, UniProt P01583 113-271); test: BLI (Octet RED384), antibody on protein A sensors, single shot
T9 construct: also called IL-1a (R&D Systems #200-LA)
T9 sequence (looked up): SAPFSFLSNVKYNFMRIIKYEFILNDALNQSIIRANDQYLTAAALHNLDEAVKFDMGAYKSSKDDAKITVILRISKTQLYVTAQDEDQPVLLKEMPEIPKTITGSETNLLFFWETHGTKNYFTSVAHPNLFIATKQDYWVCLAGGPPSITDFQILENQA

human IL-1b = molecular target: T10, human IL-1b (human, UniProt P01584 117-269); test: as above
T10 construct: also called IL-1b (R&D Systems #201-LB)

human IL-33 [5] = molecular target: T2, human IL-33; test: cell-based or functional assay

T8 sequence (P08637 17-208): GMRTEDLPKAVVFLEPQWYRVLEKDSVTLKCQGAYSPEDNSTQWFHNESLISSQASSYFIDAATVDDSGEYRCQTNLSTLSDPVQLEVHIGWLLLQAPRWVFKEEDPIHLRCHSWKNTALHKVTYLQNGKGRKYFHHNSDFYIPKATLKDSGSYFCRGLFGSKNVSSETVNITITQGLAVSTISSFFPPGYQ
T4 sequence (P12314 16-292): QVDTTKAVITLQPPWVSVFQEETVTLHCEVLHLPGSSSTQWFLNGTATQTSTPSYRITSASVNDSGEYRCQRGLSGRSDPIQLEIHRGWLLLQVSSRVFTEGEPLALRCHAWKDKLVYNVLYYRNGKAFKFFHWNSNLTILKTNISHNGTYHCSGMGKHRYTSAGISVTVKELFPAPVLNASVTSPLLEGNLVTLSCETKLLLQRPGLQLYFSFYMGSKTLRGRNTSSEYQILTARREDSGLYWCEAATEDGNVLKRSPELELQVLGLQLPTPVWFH
T1 sequence (P02745 23-245 limits assumed, chain 1 of 3): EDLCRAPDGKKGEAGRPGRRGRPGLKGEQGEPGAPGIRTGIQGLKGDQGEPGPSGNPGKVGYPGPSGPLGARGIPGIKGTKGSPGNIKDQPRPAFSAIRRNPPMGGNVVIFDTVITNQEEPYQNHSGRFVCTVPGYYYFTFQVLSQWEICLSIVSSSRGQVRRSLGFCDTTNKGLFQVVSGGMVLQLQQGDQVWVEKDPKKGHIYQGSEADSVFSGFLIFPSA
T1 sequence (P02746 28-253 limits assumed, chain 2 of 3): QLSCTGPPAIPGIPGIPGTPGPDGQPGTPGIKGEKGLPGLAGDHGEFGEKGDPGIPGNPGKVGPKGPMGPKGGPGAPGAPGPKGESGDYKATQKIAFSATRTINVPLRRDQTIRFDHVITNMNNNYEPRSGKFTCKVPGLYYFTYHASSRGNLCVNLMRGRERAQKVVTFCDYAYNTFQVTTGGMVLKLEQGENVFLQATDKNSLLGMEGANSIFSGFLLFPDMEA
T1 sequence (P02747 29-245 limits assumed, chain 3 of 3): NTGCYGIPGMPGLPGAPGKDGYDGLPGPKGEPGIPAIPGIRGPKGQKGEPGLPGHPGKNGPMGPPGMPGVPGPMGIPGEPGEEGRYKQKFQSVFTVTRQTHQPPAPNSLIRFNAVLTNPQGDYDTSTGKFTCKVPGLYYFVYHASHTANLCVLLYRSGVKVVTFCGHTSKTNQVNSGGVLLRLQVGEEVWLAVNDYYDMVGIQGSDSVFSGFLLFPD
T5 sequence (P08637 17-208 F176V): as the sequence (P08637 17-208) above, with F160V counted along it

B1: 22A06-458 (antibody, human IgG1, kappa)
heavy: QVQLVQSGAEVKKPGASVKVSCKASGYTFISYGMHWVRQAPGQGLEWMGEINPHGGSTSYAQKFKGRVTMTRDTSTSTVYMELSSLRSEDTAVYYCARPSAAYSHYLGIDLWGRGTLVTVSSASTKGPSVFPLAPSSKSTSGGTAALGCLVKDYFPEPVTVSWNSGALTSGVHTFPAVLQSSGLYSLSSVVTVPSSSLGTQTYICNVNHKPSNTKVDKKVEPKSCDKTHTCPPCPAPELLGGPSVFLFPPKPKDTLYITREPEVTCVVVDVSHEDPEVKFNWYVDGVEVHNAKTKPREEQYNSTYRVVSVLTVLHQDWLNGKEYKCKVSNKALPAPIEKTISKAKGQPREPQVYTLPPSRDELTKNQVSLTCLVKGFYPSDIAVEWESNGQPENNYKTTPPVLDSDGSFFLYSKLTVDKSRWQQGNVFSCSVMHEALHNHYTQKSLSLSPGK
light: DIQMTQSPSSVSASVGDRVTITCRASQGISSWLAWYQQKPGKAPKLLIYAASRLQSGVPSRFSGSGSGTDFTLTISSLQPEDFATYYCQQANVFPLTFGGGTKVEIKRTVAAPSVFIFPPSDEQLKSGTASVVCLLNNFYPREAKVQWKVDNALQSGNSQESVTEQDSKDSTYSLSSTLTLSKADYEKHKVYACEVTHQGLSSPVTKSFNRGEC
Kd [1]: 213 nM
IC50, inhibition of 10 ng/mL IL-33 induced IFN-γ secretion from whole blood, non-pre-complexed, Mean (human IL-33 [2]): 0.37 nM
IC50, inhibition of 10 ng/mL IL-33 induced IFN-γ secretion from whole blood, non-pre-complexed, donor #32871 (human IL-33 [2]): 0.21 nM
IC50, inhibition of 10 ng/mL IL-33 induced IFN-γ secretion from whole blood, non-pre-complexed, donor #90237 (human IL-33 [2]): 0.73 nM
IC50, inhibition of 10 ng/mL IL-33 induced IFN-γ secretion from whole blood, non-pre-complexed, donor #91680 (human IL-33 [2]): 0.43 nM
IC50, inhibition of 10 ng/mL IL-33 induced IFN-γ secretion from whole blood, non-pre-complexed, donor #91955 (human IL-33 [2]): 0.08 nM
IC50, inhibition of 10 ng/mL IL-33 induced IFN-γ secretion from whole blood, non-pre-complexed, donor #91986 (human IL-33 [2]): 0.36 nM
IC50, inhibition of 10 ng/mL IL-33 induced IFN-γ secretion from whole blood, non-pre-complexed, donor #92251 (human IL-33 [2]): 0.42 nM
pIC50, inhibition of 10 ng/mL IL-33 induced IFN-γ secretion from whole blood, non-pre-complexed, Mean (human IL-33 [2]): 9.51
pIC50, inhibition of 10 ng/mL IL-33 induced IFN-γ secretion from whole blood, non-pre-complexed, donor #32871 (human IL-33 [2]): 9.67
pIC50, inhibition of 10 ng/mL IL-33 induced IFN-γ secretion from whole blood, non-pre-complexed, donor #90237 (human IL-33 [2]): 9.13
pIC50, inhibition of 10 ng/mL IL-33 induced IFN-γ secretion from whole blood, non-pre-complexed, donor #91680 (human IL-33 [2]): 9.37
pIC50, inhibition of 10 ng/mL IL-33 induced IFN-γ secretion from whole blood, non-pre-complexed, donor #91955 (human IL-33 [2]): 10.1
pIC50, inhibition of 10 ng/mL IL-33 induced IFN-γ secretion from whole blood, non-pre-complexed, donor #91986 (human IL-33 [2]): 9.44
pIC50, inhibition of 10 ng/mL IL-33 induced IFN-γ secretion from whole blood, non-pre-complexed, donor #92251 (human IL-33 [2]): 9.37
Kd (hFcgRIIa (R131)): 502 nM
Kd (hFcgRI): 24.3 nM
Kd (hFcgRIIIa (V158)): 215 nM
Kd (hFcgRIIb): 5220 nM
Kd (hFcgRIIa (H131)): 574 nM
Kd (hFcgRIIIa (F158)): 987 nM
IC50, inhibition of 30 ng/mL IL-33 induced IFN-γ secretion from whole blood, non-pre-complexed, Mean (human IL-33 [3]): 1.57 nM
IC50, inhibition of 30 ng/mL IL-33 induced IFN-γ secretion from whole blood, non-pre-complexed, donor #32871 (human IL-33 [3]): 0.97 nM
IC50, inhibition of 30 ng/mL IL-33 induced IFN-γ secretion from whole blood, non-pre-complexed, donor #90237 (human IL-33 [3]): 2.6 nM
IC50, inhibition of 30 ng/mL IL-33 induced IFN-γ secretion from whole blood, non-pre-complexed, donor #91680 (human IL-33 [3]): 1.6 nM
IC50, inhibition of 30 ng/mL IL-33 induced IFN-γ secretion from whole blood, non-pre-complexed, donor #91955 (human IL-33 [3]): 0.48 nM
IC50, inhibition of 30 ng/mL IL-33 induced IFN-γ secretion from whole blood, non-pre-complexed, donor #91986 (human IL-33 [3]): 3.04 nM
IC50, inhibition of 30 ng/mL IL-33 induced IFN-γ secretion from whole blood, non-pre-complexed, donor #92251 (human IL-33 [3]): 0.74 nM
pIC50, inhibition of 30 ng/mL IL-33 induced IFN-γ secretion from whole blood, non-pre-complexed, Mean (human IL-33 [3]): 8.89
pIC50, inhibition of 30 ng/mL IL-33 induced IFN-γ secretion from whole blood, non-pre-complexed, donor #32871 (human IL-33 [3]): 9.01
pIC50, inhibition of 30 ng/mL IL-33 induced IFN-γ secretion from whole blood, non-pre-complexed, donor #90237 (human IL-33 [3]): 8.58
pIC50, inhibition of 30 ng/mL IL-33 induced IFN-γ secretion from whole blood, non-pre-complexed, donor #91680 (human IL-33 [3]): 8.79
pIC50, inhibition of 30 ng/mL IL-33 induced IFN-γ secretion from whole blood, non-pre-complexed, donor #91955 (human IL-33 [3]): 9.31
pIC50, inhibition of 30 ng/mL IL-33 induced IFN-γ secretion from whole blood, non-pre-complexed, donor #91986 (human IL-33 [3]): 8.51
pIC50, inhibition of 30 ng/mL IL-33 induced IFN-γ secretion from whole blood, non-pre-complexed, donor #92251 (human IL-33 [3]): 9.13
IC50, inhibition of IL-33 (500 pM) induced IL-6 secretion from HUVECs, pre-complexed, Mean (human IL-33 [4]): 217 pM
IC50, inhibition of IL-33 (500 pM) induced IL-6 secretion from HUVECs, pre-complexed, P7 (human IL-33 [4]): 214 pM
IC50, inhibition of IL-33 (500 pM) induced IL-6 secretion from HUVECs, pre-complexed, P8 (human IL-33 [4]): 204 pM
IC50, inhibition of IL-33 (500 pM) induced IL-6 secretion from HUVECs, pre-complexed, P9 (human IL-33 [4]): 234 pM
IC50, inhibition of IL-33 (500 pM) induced IL-8 secretion from HUVECs, pre-complexed, Mean (human IL-33 [4]): 390 pM
IC50, inhibition of IL-33 (500 pM) induced IL-8 secretion from HUVECs, pre-complexed, P7 (human IL-33 [4]): 489 pM
IC50, inhibition of IL-33 (500 pM) induced IL-8 secretion from HUVECs, pre-complexed, P8 (human IL-33 [4]): 278 pM
IC50, inhibition of IL-33 (500 pM) induced IL-8 secretion from HUVECs, pre-complexed, P9 (human IL-33 [4]): 402 pM
pIC50, inhibition of IL-33 (500 pM) induced IL-6 secretion from HUVECs, pre-complexed, Mean (human IL-33 [4]): 9.66
pIC50, inhibition of IL-33 (500 pM) induced IL-6 secretion from HUVECs, pre-complexed, P7 (human IL-33 [4]): 9.67
pIC50, inhibition of IL-33 (500 pM) induced IL-6 secretion from HUVECs, pre-complexed, P8 (human IL-33 [4]): 9.69
pIC50, inhibition of IL-33 (500 pM) induced IL-6 secretion from HUVECs, pre-complexed, P9 (human IL-33 [4]): 9.63
pIC50, inhibition of IL-33 (500 pM) induced IL-8 secretion from HUVECs, pre-complexed, Mean (human IL-33 [4]): 9.42
pIC50, inhibition of IL-33 (500 pM) induced IL-8 secretion from HUVECs, pre-complexed, P7 (human IL-33 [4]): 9.31
pIC50, inhibition of IL-33 (500 pM) induced IL-8 secretion from HUVECs, pre-complexed, P8 (human IL-33 [4]): 9.56
pIC50, inhibition of IL-33 (500 pM) induced IL-8 secretion from HUVECs, pre-complexed, P9 (human IL-33 [4]): 9.4
binding result (human IL-1a): no binding (tested: 100 nM)
binding result (human IL-1b): no binding (tested: 100 nM)
IC50, inhibition of IL-33 (5.0 nM) induced β-hexosaminidase release from basophils, pre-complexed, Mean (human IL-33 [5]): 2.03 nM
IC50, inhibition of IL-33 (5.0 nM) induced β-hexosaminidase release from basophils, pre-complexed, donor #33235 (human IL-33 [5]): 1.39 nM
IC50, inhibition of IL-33 (5.0 nM) induced β-hexosaminidase release from basophils, pre-complexed, donor #90290 (human IL-33 [5]): 4.53 nM
IC50, inhibition of IL-33 (5.0 nM) induced β-hexosaminidase release from basophils, pre-complexed, donor #90356 (human IL-33 [5]): 1.23 nM
IC50, inhibition of IL-33 (5.0 nM) induced β-hexosaminidase release from basophils, pre-complexed, donor #90541 (human IL-33 [5]): 0.97 nM
pIC50, inhibition of IL-33 (5.0 nM) induced β-hexosaminidase release from basophils, pre-complexed, Mean (human IL-33 [5]): 8.78
pIC50, inhibition of IL-33 (5.0 nM) induced β-hexosaminidase release from basophils, pre-complexed, donor #33235 (human IL-33 [5]): 8.86
pIC50, inhibition of IL-33 (5.0 nM) induced β-hexosaminidase release from basophils, pre-complexed, donor #90290 (human IL-33 [5]): 8.34
pIC50, inhibition of IL-33 (5.0 nM) induced β-hexosaminidase release from basophils, pre-complexed, donor #90356 (human IL-33 [5]): 8.91
pIC50, inhibition of IL-33 (5.0 nM) induced β-hexosaminidase release from basophils, pre-complexed, donor #90541 (human IL-33 [5]): 9.01
